Legend:
[1] = biological target: T1, human endothelin A receptor (human, UniProt P25101 21-427); test: cell-based or functional assay
T1 sequence: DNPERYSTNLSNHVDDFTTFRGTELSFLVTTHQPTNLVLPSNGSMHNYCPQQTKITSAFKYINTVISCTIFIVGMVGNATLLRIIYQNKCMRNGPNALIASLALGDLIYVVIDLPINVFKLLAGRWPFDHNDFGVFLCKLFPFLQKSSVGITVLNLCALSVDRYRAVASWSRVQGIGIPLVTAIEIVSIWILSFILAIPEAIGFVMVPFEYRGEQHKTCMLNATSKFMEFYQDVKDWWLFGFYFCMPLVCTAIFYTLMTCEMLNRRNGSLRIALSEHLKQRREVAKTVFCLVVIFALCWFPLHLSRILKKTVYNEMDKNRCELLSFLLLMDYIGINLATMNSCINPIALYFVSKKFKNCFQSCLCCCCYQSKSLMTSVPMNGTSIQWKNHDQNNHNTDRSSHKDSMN

[2] = biological target: T1, human endothelin A receptor; test: FACS on CHO-DHFR-ETAR cells, CHO-DHFR- cells as negative control

B1: ETAR antibody A-9 (antibody, V domains shown)
VH: EVQLQQPGGGLVQPGGSLTLSCATSGFTFSSYGMSWVRQTPAKRLELVATISTNGATANYPDSVKGRFTISRDNAKSTLYLQMRSLKSEDTAMYYCATEKGAMGYWGQGTSVTVSS
VL: DVLMTQTPLSLPVSLGDQASISCRSSQNIVHSTGNTYLEWYLQKPGQSPKLLIYKVSNRFSGVPNRFRGSGSGTDFTLKITRVEAEDLGIYYCFQGSHFPFTFGSGTKLEIKR
In the case of B1, the “IC50, calcium flux assay (inhibition of human ETAR)” value [1] is reported as 87.8 nM.

B2: ETAR antibody A-2 (antibody, V domains shown)
VH: QIQLVQSGAELAKPGASVRMSCETSGYTFTSYWIHWIKERPGQGLEWIGYINPDTDYSEYNQKFKDKARLTADKSSTTAYMELNSLTFDDSAVYYCASAGYYFFDFWGQGTTLTVSS
VL: DIQMTQSPASLSTSVGETVTITCRASENIYSYLAWYQQRQGKSPHLLVNNAKTLAEGVPSRFSGSGSGTHFSLRISGLQPEDFGSYYCQHHYGIPFTFGGGTKLSIKR
notes: Recombinant antibody; also called L2H2
B2: binds [2].

B3: ETAR antibody A-7 (antibody, V domains shown)
VH: EVHLVESGGGLVQPGGSLKLSCAASGFTFSTYGMSWVRQTPDKRLELVATINTNGGTTYYRDSVKGRFTISRDNAKNTLYLQMSSLKSDDTAMYYCARDYGAMDYWGQGTSVTVSS
VL: DVLMTQTPLSLPVSLGDHASISCRSSQYIVHSTGTTYLEWYLQKPGQSPQLLIYKVSNRFSGVPDRFTGSGSGTDFTLRISRVEAEDLGVYFCFQGSHFPFTFGSGTKLEIKR
notes: Recombinant antibody; also called L7H7
B3: binds [2].

B4: ETAR antibody A-12 (antibody, V domains shown)
VH: EVKLVESGGRLVQPGNSLRLSCATSGFTFSDYYMSWVRQTPGRALEWLSFIRNRANGYTTEYSASVKGRFTISRDNSQSILYLHMSTLRPEDSATYYCVRDSYHYGYFDVWGAGTTVTVSS
VL: EIQMTQTPSSLSASLGDRVTITCSASQGINNYLNWYQQKPGGKTRLLIYYTSTLQSGVPSRFSGSGSGTHYSLTISNLEPEDIATYYCQQFSKLRTFGGGTRLEIKR
notes: Recombinant antibody; also called L12H12
B4: binds [2].

Reference: patent US20190134196A1 (GMAX BIOPHARM, published 2019)
